The target of this experiment is nucleosomes reconstituted in vitro from X. laevis core histones on biotinylated pKYB1 DNA (Xenopus laevis). The experiment can be described thus: optical tweezers with confocal fluorescence microscopy; nucleosomes on pKYB1 DNA tethered between streptavidin beads, in 1–2 nM fluorescently labelled chaperone; force-extension curves 1–32 pN at 20 nm/s with kymographs at 4 Hz; binding events after unwrapping / at high force (>10 pN); 25 mM HEPES, 50 mM KCl, 0.1 mM EDTA, pH 7.5.

Chain of nucleophosmin 1, labelled with Alexa Fluor 532 (P06748 whole entry): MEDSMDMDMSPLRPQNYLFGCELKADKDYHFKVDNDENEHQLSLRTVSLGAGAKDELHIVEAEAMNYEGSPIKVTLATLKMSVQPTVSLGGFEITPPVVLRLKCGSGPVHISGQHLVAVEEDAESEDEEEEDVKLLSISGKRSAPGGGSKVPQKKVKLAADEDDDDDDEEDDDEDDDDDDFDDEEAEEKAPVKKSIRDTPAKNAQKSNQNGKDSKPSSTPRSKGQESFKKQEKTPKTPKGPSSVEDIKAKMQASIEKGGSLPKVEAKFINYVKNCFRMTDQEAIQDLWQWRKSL

For “nucleophosmin 1, labelled with Alexa Fluor 532 (from UniProt P06748 1-294) (natural protein)”, the percent of the chaperone binding events found after complete unwrapping is above 90%.

In turn, “SET/template‐activating factor‐Iβ Q69C, labelled with Alexa Fluor 532 (from UniProt Q01105-2 1-277) (natural protein)” returned a percent of the chaperone binding events found after complete unwrapping above 90%.

These data come from PMC10582448.
